According to patent US20190016826A1 (Genentech, published 2019):
Changes are numbered by the printed parent chain.

Legend:
Assay in all cases: ELISA on plate-coated HuHtrA1_PD mutants (Example 7); column head on the sheet reads YW505.94 Fab, legend paragraph 70 says IgG94
[1] = biological target: T1, R227A
T1 construct: also called HuHtrA1_PD(R227A)
Experimental: (§1) The mutants were expressed in E. coli and the trimers purified by size exclusion chromatography as described in Example 2. Binding was determined using an ELISA assay, which was conducted using a MAXISORP™ microtiter plate coated with HuHtrA1_PD mutants at 2 μg/ml in PBS for 1 h, followed by blocking with PBST buffer (0.5% BSA and 0.05% Tween 20 in PBS) for 1 h at room temperature. […] The plates were washed with PBT buffer (0.05% Tween 20 in PBS), and HRP-conjugated goat anti-human IgG (H+L) (Invitrogen) was added (1:5000 in PBST buffer) and incubated for 1 h. The plates were washed with PBT buffer and developed by adding tetramethylbenzidine substrate (Kirkegaard and Perry Laboratories, Gaithersburg, Md.). The absorbance at 450 nm was plotted as a function of antibody concentration in solution to determine EC₅₀ values.
(§2) In trypsin-like serine proteases these loops are known to be part of the specificity determining region that interacts with substrates.

[2] = biological target: T2, E239A
T2 construct: also called HuHtrA1_PD(E239A)
Experimental: as §1, §2

[3] = biological target: T3, HuHtrA1_PD(K243A) (human, UniProt F1N152 168-386 (bovine entry))
T3 construct: Alanine mutant of HuHtrA1_PD; also called HuHtrA1 mutant K243A; not shown: thrombin cleavage site
T3 chain: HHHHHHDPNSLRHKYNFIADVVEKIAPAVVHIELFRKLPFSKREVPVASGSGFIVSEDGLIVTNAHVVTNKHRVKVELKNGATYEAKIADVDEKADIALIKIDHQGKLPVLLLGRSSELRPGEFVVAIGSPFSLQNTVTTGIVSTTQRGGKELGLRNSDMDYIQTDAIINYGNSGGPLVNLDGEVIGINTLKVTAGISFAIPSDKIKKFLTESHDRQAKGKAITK
Experimental: as §1, §2

[4] = biological target: T4, K241A
T4 construct: also called HuHtrA1_PD(K241A)
Experimental: as §1, §2

[5] = biological target: T5, D244A
T5 construct: also called HuHtrA1_PD(D244A)
Experimental: as §1, §2

[6] = biological target: T6, K248A
T6 construct: also called HuHtrA1_PD(K248A)
Experimental: as §1, §2

[7] = biological target: T7, K191A
T7 construct: also called HuHtrA1_PD(K191A)
Experimental: as §1, §2

[8] = biological target: T8, N224A
T8 construct: also called HuHtrA1_PD(N224A)
Experimental: as §1, §2

[9] = biological target: T9, Y325A
T9 construct: also called HuHtrA1_PD(Y325A)
Experimental: as §1, §2

[10] = biological target: T10, HuHtrA1_PD(E247A) (human, UniProt F1N152 168-386 (bovine entry))
T10 construct: Alanine mutant of HuHtrA1_PD; also called HuHtrA1 mutant E247A; not shown: thrombin cleavage site
T10 chain: T3 chain with A89K, E93A
Experimental: as §1, §2

[11] = biological target: T11, HuHtrA1_PD(K225A) (human, UniProt F1N152 168-386 (bovine entry))
T11 construct: Alanine mutant of HuHtrA1_PD; also called HuHtrA1 mutant K225A; not shown: thrombin cleavage site
T11 chain: T3 chain with K71A, A89K
Experimental: as §1, §2

- EC50 [1]: 25.9 nM
- Relative to WT EC50 Fold Decrease [1]: 4.6 fold
- EC50 [2]: 5.4 nM
- Relative to WT EC50 Fold Decrease [2]: 0.9 fold
- EC50 [3]: 64.9 nM
- Relative to WT EC50 Fold Decrease [3]: 11.6 fold
- EC50 [4]: 23 nM
- Relative to WT EC50 Fold Decrease [4]: 4.1 fold
- EC50 [5]: 4.7 nM
- Relative to WT EC50 Fold Decrease [5]: 0.8 fold
- EC50 [6]: 196 nM
- Relative to WT EC50 Fold Decrease [6]: 35 fold
- EC50 [7]: 14 nM
- Relative to WT EC50 Fold Decrease [7]: 2.5 fold
- EC50 [8]: 135 nM
- Relative to WT EC50 Fold Decrease [8]: 24 fold
- EC50 [9]: 7.7 nM
- Relative to WT EC50 Fold Decrease [9]: 1.4 fold
- EC50 [10]: 41.7 nM
- Relative to WT EC50 Fold Decrease [10]: 7.4 fold
- EC50 [11]: 52.2 nM
- Relative to WT EC50 Fold Decrease [11]: 9.3 fold
B1: Fab94 (anti-HtrA1 antibody YW505.94, Fab format) (Fab, V domains shown)
VH: EVQLVESGGGLVQPGGSLRLSCAASGFNISGYYIHWVRQAPGKGLEWVGWIDPYGGDTNYADSVKGRFTISADTSKNTAYLQMNSLRAEDTAVYYCARGTFLTSWGHYFDYWGQGT
VL: DIQMTQSPSSLSASVGDRVTITCRASQDVSTAVAWYQQKPGKAPKLLIYSASFLYSGVPSRFSGSGSGTDFTLTISSLQPEDFATYYCQQSYTTPPTFGQGTKVEIKR
